Assay results taken from patent US20190177415A1 (PIERRE FABRE MEDICAMENT, published 2019).
Residue numbers refer to the chain shown, from its start.

Tests used:
[1] = molecular target: T1, C10orf54 (antigen of the KD values in Table 42) (human, UniProt Q9H7M9 33-311, limits assumed); test: method and antigen form not stated; footnote: low affinity antibody
T1 sequence: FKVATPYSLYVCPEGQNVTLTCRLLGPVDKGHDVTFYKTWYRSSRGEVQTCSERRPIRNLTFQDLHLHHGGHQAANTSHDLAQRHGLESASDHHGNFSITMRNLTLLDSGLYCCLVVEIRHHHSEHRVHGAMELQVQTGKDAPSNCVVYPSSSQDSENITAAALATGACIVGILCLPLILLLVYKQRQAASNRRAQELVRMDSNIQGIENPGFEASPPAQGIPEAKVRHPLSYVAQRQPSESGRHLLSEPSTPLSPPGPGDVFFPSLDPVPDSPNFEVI

[2] = molecular target: T2, full length cynomolgus monkey C10orf54 (construct CC4) (cynomolgus monkey, UniProt Q9H7M9 33-311 (human entry)); test: flow cytometry, transfected 293t cells, 2 ug/ml; stain = MFI >=20-fold over isotype control
T2 construct: also called C10orf54 Construct 4
T2 chain: T1 sequence with P6L, L24V, L25F, N145S, V148A, D155E, I205T, P217S, P223L, S251G
Description: (§1) To investigate epitope diversity of the anti-human C10orf54 antibodies, 293t cells were transfected with 1 of 10 different C10orf54 expression constructs that co-express a fluorescent marker. Two days after transfection, cells were stripped from the tissue culture plate, stained with 2 μg/ml anti-human C10orf54 antibody , washed, stained with anti-mouse IgG-Fc Alexa Fluor 647 polyclonal antibody, washed, and stained with the viability dye 4′,6-Diamidino-2-Phenylindole, Dihydrochloride. Upon acquisition of 10,000 live events on a flow cytometer, live cells marked with the fluorescent marker were analyzed for the degree of staining by the anti-human C10orf54 antibody. When the median fluorescence intensity fold-change relative to an isotype control antibody was at least 20-fold, the antibody was considered to stain the C10orf54 expression construct in question.

[3] = molecular target: T3, chimeric C10orf54: human IgV with mouse STALK (construct CC5) (human/mouse chimera); test: as above
T3 construct: also called C10orf54 Construct 5; hsIGVmmSTALK
T3 chain: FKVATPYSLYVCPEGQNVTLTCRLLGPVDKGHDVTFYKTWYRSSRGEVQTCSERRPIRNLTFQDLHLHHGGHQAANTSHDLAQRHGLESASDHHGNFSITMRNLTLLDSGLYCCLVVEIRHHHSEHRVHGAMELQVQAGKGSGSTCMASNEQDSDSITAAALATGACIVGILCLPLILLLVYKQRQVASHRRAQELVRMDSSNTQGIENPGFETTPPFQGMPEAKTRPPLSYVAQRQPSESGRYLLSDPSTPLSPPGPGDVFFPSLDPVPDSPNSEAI
Description: as §1

[4] = molecular target: T4, chimeric C10orf54: first half of IgV human and remainder (including loop) mouse (construct CC7) (human/mouse chimera, UniProt Q9D659 33-308 (mouse entry)); test: as above
T4 construct: also called C10orf54 Construct 7; hsABCmmC10
T4 chain: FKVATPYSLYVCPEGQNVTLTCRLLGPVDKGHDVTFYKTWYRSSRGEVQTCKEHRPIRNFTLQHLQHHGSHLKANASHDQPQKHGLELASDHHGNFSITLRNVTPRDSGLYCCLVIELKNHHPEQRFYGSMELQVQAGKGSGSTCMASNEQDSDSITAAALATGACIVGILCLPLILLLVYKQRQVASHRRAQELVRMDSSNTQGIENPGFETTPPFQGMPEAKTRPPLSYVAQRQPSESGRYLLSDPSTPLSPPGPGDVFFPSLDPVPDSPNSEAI
Description: as §1

[5] = molecular target: T5, chimeric C10orf54: human with mouse loop (construct CC9) (human/mouse chimera, UniProt Q9H7M9 33-311); test: as above
T5 construct: also called C10orf54 Construct 9; hsC10mmLOOP
T5 chain: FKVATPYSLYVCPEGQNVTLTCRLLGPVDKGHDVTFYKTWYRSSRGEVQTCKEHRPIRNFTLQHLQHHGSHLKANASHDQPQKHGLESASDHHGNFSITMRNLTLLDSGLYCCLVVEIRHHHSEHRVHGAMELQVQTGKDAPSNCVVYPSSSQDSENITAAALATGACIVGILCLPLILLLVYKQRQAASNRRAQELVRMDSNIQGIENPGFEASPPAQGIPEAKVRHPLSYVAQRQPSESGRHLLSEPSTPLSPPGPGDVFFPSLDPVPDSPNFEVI
Description: as §1

B1: murine monoclonal antibody 305A (antibody, V domains shown)
VH: DVQLQESGPGLVKPSQSLSLTCSVTGYSITSGYYWNWIRQFPGNKLEWMGYISYDGSNNYNPSLKNRISITRDTSKNQFFLKLNSVTTEDTATYYCARRHDYLSFAYWGQGTLVIVSA
VL: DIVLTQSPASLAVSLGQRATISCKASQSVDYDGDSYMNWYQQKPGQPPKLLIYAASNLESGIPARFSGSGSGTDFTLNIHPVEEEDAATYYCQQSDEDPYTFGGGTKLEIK
notes: Mouse hybridoma antibody
Kd [1]: 0.0208 µM
binding result [2]: binds
binding result [3]: binds
binding result [4]: binds
binding result [5]: binds
